Data published in patent publication US20180085476.

System: T1, promolecule containing protonectin (portion A), PR linker (X2) and PAR-1 exosite recognition sequence (portion Z), Cy3 on an N-terminal lysine
T1 sequence: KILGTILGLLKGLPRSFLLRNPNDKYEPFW

## thrombin
  KM (Michaelis-Menten, digestion followed by reverse phase HPLC): KM 200 nM
  kcat/KM (Michaelis-Menten, digestion followed by reverse phase HPLC): kcat/KM=8 µM^-1 sec^-1
